Results: patent publication US5639663, “Bifunctional genetic markers” (National Research Council of Canada, dated 1997)

Molecular target: beta-glucuronidase (GUS), unfused, expressed from pGK1 (E. coli, UniProt P05804)
Assay: molecular sieve chromatography (Superose 6) of E. coli extract co-expressing unfused GUS and NPT-II; enzyme activities of the fractions

B1: neomycin phosphotransferase-II (NPT-II), unfused, expressed from pGS39 (enzyme)
chain: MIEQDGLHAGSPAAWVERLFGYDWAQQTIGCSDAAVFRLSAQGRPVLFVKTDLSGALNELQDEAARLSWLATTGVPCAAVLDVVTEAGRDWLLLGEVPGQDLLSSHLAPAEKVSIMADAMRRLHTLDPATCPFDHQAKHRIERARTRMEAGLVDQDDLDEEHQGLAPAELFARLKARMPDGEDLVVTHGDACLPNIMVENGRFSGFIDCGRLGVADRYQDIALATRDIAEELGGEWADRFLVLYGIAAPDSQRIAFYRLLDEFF
  binding result: no binding
